Test results: PMC2248732

Key:
[1] = target: Hfq65 (Escherichia coli) (UniProt P0A6X3); experiment: EMSA
[2] = target: Hfqwt (Escherichia coli) (UniProt P0A6X3); experiment: EMSA
Hfqwt (Escherichia coli), sequence (P0A6X3 whole entry): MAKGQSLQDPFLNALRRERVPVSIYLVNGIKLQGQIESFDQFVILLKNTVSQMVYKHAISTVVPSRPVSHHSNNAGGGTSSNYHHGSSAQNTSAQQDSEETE

Hfq65 (Escherichia coli), sequence (P0A6X3 1-65): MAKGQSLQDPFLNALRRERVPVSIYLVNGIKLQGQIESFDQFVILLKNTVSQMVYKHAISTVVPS

Substance RyhB has a Kd [1] of 35 nM and a Kd [2] of 16 nM.
